Measurements published in patent publication US20170354129A1 (NATIONAL AGRICULTURE AND FOOD RESEARCH ORGANIZATION, published 2017).

Tests used:
[1] = target: T1, F-AGE (AGEs prepared by fructose treatment of BSA) (bovine, UniProt P02769 25-607, glycated by fructose, 37 C for 12 weeks (sites not given)); assay: SPR single cycle kinetics, biotinylated sRAGE on a streptavidin (SA) chip, F-AGE as analyte
T1 construct: also called F-AGEs; fructose treated BSA

[2] = target: T2, fully oxidized LDL (UniProt P04114 28-4563, oxidatively modified with copper for 20 hours at 37 C (sites not given)); assay: phage ELISA on oxidized LDL
T2 construct: Lipoprotein particle; also called fuOxLDL; FoxLDL
T2 sequence (P04114 28-4563): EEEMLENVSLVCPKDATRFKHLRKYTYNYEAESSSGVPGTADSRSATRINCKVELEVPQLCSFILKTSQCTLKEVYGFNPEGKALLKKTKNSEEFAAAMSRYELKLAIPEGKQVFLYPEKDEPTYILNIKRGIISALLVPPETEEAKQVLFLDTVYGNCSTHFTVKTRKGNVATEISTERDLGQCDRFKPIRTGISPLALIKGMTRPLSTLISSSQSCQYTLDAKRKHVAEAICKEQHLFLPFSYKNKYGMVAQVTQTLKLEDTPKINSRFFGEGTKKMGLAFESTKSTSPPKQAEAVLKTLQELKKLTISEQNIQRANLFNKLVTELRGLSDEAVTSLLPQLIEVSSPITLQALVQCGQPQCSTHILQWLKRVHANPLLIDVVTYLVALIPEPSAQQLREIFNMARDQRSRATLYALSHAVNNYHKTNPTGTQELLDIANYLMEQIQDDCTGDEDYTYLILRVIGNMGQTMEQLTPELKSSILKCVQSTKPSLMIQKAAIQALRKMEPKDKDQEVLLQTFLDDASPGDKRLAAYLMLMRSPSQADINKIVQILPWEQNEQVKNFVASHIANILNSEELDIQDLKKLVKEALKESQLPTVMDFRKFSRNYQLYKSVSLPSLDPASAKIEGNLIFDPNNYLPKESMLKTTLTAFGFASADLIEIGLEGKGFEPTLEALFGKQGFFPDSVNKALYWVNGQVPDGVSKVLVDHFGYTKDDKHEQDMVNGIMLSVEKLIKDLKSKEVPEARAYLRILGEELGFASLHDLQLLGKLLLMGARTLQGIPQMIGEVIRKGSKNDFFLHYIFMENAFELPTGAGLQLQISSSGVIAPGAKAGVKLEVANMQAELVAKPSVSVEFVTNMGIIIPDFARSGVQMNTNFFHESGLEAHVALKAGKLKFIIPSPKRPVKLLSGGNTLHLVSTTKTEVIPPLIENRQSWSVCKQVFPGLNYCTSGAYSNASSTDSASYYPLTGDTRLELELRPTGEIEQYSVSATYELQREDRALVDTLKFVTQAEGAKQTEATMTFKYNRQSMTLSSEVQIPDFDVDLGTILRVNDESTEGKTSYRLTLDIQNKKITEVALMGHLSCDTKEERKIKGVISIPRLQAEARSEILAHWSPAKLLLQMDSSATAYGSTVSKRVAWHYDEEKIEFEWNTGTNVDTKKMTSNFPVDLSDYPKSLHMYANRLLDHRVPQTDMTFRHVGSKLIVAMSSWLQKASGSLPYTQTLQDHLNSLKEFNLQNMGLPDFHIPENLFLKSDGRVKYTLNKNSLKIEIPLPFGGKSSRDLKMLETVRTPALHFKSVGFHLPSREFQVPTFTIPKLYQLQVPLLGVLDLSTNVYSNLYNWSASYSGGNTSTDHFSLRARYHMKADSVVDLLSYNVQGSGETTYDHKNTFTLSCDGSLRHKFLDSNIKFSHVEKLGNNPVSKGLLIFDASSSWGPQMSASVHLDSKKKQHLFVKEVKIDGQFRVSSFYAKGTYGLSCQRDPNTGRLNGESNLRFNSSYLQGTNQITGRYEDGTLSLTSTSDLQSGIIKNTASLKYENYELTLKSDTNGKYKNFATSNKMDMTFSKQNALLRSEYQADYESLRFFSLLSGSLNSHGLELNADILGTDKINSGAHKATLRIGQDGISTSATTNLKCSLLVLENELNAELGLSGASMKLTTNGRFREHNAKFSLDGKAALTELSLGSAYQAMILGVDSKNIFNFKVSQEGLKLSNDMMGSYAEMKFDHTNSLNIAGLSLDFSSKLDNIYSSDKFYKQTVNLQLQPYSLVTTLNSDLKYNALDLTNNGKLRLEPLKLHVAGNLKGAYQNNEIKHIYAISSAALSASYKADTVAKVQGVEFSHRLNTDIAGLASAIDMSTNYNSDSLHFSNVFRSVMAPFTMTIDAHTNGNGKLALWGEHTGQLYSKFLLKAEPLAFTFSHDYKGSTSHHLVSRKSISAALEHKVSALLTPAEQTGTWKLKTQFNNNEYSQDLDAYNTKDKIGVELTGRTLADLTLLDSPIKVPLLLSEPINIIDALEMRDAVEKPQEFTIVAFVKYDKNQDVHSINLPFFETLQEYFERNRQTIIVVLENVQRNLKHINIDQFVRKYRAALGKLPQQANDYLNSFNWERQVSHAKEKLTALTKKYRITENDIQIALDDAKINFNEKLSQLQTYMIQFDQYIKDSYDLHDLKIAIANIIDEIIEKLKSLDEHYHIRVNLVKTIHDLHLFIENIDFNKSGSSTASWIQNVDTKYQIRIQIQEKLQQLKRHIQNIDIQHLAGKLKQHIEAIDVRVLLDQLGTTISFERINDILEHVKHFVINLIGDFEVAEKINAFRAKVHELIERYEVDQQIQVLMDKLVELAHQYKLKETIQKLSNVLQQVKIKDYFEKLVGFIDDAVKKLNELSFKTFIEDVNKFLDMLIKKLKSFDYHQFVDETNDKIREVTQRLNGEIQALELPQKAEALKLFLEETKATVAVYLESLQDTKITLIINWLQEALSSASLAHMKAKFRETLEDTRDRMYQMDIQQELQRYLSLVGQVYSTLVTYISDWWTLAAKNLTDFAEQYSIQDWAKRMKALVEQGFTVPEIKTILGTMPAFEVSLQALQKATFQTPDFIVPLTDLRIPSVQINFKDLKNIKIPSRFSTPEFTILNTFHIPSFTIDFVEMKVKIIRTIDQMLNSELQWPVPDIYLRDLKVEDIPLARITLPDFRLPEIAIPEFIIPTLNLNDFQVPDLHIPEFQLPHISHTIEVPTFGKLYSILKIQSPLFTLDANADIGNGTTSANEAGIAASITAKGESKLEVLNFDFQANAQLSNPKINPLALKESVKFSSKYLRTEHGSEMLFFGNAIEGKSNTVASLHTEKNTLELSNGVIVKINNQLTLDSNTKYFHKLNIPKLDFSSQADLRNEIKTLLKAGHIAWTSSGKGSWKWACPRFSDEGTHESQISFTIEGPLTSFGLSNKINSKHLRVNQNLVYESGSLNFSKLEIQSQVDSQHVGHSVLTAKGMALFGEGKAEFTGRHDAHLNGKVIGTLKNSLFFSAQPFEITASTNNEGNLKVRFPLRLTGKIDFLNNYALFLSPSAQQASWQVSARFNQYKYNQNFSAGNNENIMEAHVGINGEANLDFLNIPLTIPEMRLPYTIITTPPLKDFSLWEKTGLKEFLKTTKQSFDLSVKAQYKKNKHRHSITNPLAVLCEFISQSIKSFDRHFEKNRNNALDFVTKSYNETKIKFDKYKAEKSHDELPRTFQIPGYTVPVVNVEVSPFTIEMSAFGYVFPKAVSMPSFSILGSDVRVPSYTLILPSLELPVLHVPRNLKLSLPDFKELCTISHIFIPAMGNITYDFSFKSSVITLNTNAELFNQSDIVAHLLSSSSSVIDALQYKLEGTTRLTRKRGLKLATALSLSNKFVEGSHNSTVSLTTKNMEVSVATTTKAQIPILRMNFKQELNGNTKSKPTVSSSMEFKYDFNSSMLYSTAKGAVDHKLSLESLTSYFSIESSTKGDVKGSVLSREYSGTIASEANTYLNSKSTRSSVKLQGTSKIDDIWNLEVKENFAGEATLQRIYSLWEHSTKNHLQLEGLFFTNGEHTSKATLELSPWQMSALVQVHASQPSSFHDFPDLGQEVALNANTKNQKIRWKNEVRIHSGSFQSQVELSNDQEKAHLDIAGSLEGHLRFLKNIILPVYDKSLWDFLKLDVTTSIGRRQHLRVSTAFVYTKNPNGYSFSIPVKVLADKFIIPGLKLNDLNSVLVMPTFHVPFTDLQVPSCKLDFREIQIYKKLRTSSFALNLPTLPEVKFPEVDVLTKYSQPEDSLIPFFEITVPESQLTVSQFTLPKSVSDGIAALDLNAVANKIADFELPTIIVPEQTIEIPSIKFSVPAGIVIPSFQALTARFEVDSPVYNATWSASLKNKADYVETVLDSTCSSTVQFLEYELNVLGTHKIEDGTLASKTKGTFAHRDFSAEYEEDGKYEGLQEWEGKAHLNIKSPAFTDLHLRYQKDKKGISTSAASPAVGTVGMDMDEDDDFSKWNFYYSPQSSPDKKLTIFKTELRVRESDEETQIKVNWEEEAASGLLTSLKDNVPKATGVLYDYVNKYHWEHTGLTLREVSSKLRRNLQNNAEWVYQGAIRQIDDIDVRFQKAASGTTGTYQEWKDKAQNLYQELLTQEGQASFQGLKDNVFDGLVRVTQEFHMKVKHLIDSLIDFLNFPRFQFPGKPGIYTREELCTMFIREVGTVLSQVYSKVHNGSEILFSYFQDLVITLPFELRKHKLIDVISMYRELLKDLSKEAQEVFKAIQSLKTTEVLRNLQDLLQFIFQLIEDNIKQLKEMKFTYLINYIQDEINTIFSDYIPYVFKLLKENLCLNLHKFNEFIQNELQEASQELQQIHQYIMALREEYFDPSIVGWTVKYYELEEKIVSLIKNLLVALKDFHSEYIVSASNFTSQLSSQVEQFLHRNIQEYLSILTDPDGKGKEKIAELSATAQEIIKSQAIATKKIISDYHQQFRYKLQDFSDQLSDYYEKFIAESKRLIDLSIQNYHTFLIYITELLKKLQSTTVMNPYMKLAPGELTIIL

[3] = target: T3, LDL (unmodified low density lipoprotein) (UniProt P04114 28-4563); assay: direct ELISA, lowest antigen amount at which detection was possible
T3 construct: Lipoprotein particle, not a pure protein; also called LDLs; unmodified LDL
Procedure: (§1) Antigen recognition activity of a purified single chain antibody was evaluated by direct ELISA. LDLs, acetylated LDLs, partially oxidized LDLs, and fully oxidized LDLs were used as antigens. 0.05 to 10 μg/ml of antigen solution was added to a polystyrene 96-well microwell plate at 100 μl/well and allowed to adsorb overnight at 4° C. The plate was washed three times with PBS (200 μl/well). Blocking buffer (0.25% BSA/PBS) was added at 200 μl/well. The mixture was left standing for 2 hours at room temperature. After the plate was washed three times with PBS (200 μl/well), 2.5 μg/ml/PBS single chain antibody was added at 100 μl/well and reacted for 1 hour at room temperature. The plate was washed five times with PBS (200 μl/well) and anti-His-HRP antibody diluted 1000-fold with blocking buffer was added at 100 μl/well and reacted for 1 hour at room temperature. After washing the plate five times with PBS (200 μl/well), 3,3′,5,5′-tetramethyl-benzidine (TMB) was added at 50 μl/well. The luminescence was examined and 150μ/well of 1N HCl was added to suspend the reaction. Subsequently, the absorbance at 450 nm for each well of the plate was measured (FIG. 11).
(§2) The detection limit was calculated as the detection limit at the lowest concentration at which detection was possible in measured specimens at different dilution levels.

[4] = target: T4, acetylated LDL (UniProt P04114 28-4563, acetylated (sites not given)); assay: as above
T4 construct: Lipoprotein particle; also called AcLDL; Ac LDLs
Procedure: as §1, §2

[5] = target: T5, partially oxidized LDL (UniProt P04114 28-4563, oxidatively modified with copper for 4 hours at 37 C (sites not given)); assay: as above
T5 construct: Lipoprotein particle; also called moOxLDL; moLDL
T5 sequence (P04114 28-4563): as above
Procedure: as §1, §2

[6] = target: T2, fully oxidized LDL; assay: as above
Procedure: as §1, §2

T1 sequence (P02769 25-607 limits assumed): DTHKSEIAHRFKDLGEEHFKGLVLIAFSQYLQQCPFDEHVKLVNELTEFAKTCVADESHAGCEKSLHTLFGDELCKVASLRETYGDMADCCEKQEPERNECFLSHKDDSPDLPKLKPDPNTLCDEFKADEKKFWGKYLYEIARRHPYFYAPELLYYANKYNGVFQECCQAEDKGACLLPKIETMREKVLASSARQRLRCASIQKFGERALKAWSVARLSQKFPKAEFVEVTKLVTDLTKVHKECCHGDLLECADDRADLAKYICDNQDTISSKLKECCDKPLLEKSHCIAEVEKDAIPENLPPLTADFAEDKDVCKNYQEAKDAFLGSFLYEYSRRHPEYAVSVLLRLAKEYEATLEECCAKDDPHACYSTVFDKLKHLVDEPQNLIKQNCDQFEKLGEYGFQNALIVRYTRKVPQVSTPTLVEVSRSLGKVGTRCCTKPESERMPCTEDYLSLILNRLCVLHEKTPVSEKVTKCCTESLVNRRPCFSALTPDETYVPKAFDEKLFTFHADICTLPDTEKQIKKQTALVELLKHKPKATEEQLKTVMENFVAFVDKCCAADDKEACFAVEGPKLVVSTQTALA

B1: E. coli form biotinylated sRAGE (Comparative Example 2) (receptor)
chain: AQNITARIGEPLVLKCKGAPKKPPQRLEWKLNTGRTEAWKVLSPQGGGPWDSVARVLPNGSLFLPAVGIQDEGIFRCQAMNRNGKETKSNYRVRVYQIPGKPEIVDSASELTAGVPNKVGTCVSEGSYPAGTLSWHLDGKPLVPNEKGVSVKEQTRRHPETGLFTLQSELMVTPARGGDPRPTFSCSFSPGLPRHRALRTAPIQPRVWEPVPLEEVQLVVEPEGGAVAPGGTVTLTCEVPAQPSPQIHWMKDGVPLPLPPSPVLILPEIGPQDQGTYSCVATHSSHGPQESRAVSISIIEPGEEGPTAGSGLNDIFEAQKIEWHE
notes: Not glycosylated; expressed in Origami B (DE3) together with a biotin ligase; also called E. coli form sRAGE; purified soluble biotinylated RAGE; not shown: His tag present at the N-terminus
With B1 the Kd [1] was 280 nM.

B2: single chain antibody γ+κ 40, pCANTAB5E clone 40 (phage presented and soluble forms) (scFv)
scFv: MAQVQLVQSGVELRKPGDSVKVSCKASGYSVNTHGMSWVRQAPGQGLEWLGRISSYIGLTKFAQKFQDRVTLTTDTSTNTAYLEMRSLKSDDTAVYFCGRDDYEYDAFDVWGQGTMVTVSSGGGGSGGGGSSGGGSEIVLTQSPATLSVSPGERATLSCRTTESVTDSQLAWYQQKPGQAPRLLIYGPSTRATGIPDRFSGSGSGTDFTLTISGLEPEDFAVYYCQQRNSWYTFGQGTKLEIKR
notes: not shown: C-terminal E tag from pCANTAB5E
Work on B2 yielded an A450 [2] of at least 0.6 A450.

B3: single chain antibody γ+κ 96, pCANTAB5E clone 96 (phage presented and soluble forms) (scFv)
scFv: MAEVQLVESGAEAKKPGESLKISCKGSGYSFTTNWIGWVRQLPGKGLDWMGIIYPDDSDTRYSPSFQGQVTISADKSISTAYLQWNSLKASDTAMYYCARRQWGSFDLWGQGTMVTVSSGGGGSGGGGSGGGGSEIVLTQSPATLSLSPGERATLSCRASQSVSSFLAWYQQKPGQAPRLLIYGASSRATGIPDRFSGSGSGTDFTLTINRLEPEDFAVYYCQYYGSSGTFGQGTKVEIKR
notes: as for B2
Binder B3 has an A450 [2] of at least 0.6 A450.

B4: single chain antibody γ+κ 19, pCANTAB5E clone 19 (phage presented and soluble forms) (scFv)
scFv: MAEVQLVESGAEVKNPGASVKVSCKASGYTLTGYYMHWVRQAPGQGLEWMGGIIPMYGTPTYAPRFQGRVTFTADYSTNTVYMELRSLRSEDTAVFYCARQADSASYLDYWGQGTLVTVSSGGGGSGGGGSGGGGSDVVMTQSPGTLSLSPGERATLSCRASQSLDSSYLAWYQQKPGRAPRLLIYGASDRDTGIPDRFSGSGSGTDFTLTISRLEPEDFAVYYCQQYGRSRTFGQGTKLEIKR
notes: as for B2
B4 gave an A450 [2] of at least 0.6 A450.

B5: single chain antibody γ+κ 5 expressed from pET-22b(+) in E. coli BL21 (DE3), refolded and purified (scFv)
scFv: MAQVQLQQSGPGLVKPSQTLSLTCAISGDSVSSRDAAWNWIRQSPSRGLEWLGRTYYRSEWYTDYAVSLESRLTVNPDTSRNQFSLQLNSVTPEDTAVYLCARGSSWGHAPAFFDYWGQGTLVTVSSGGGGSGGGGSGGGGSDIQMTQSPSSLSASVEDRVAITCRASQSVSTYVAWYQQKPGKAPKLLISQASSLENGVPSRFSGSGSGTDFTLTISSLQPEDFATYYCQQYTTYPYTFGQGTKLEIKR
notes: Human scFv (VH gamma - linker - V kappa) from a spleen library; detected through its His tag with anti-His-HRP; also called clone No. 5; purified single chain antibody; not shown: C-terminal His tag from pET-22b(+) (XhoI cloning)
B5 gave a detection limit [3] of 5 ng/100 µl well, a detection limit [4] of 10 ng/100 µl well and a detection limit [5] of 10 ng/100 µl well. For the same binder, the detection limit [6] was 20 ng/100 µl well.

B6: single chain antibody γ+κ 5, pCANTAB5E clone 5 (phage presented and soluble forms) (scFv)
scFv: MAQVQLQQSGPGLVKPSQTLSLTCAISGDSVSSRDAAWNWIRQSPSRGLEWLGRTYYRSEWYTDYAVSLESRLTVNPDTSRNQFSLQLNSVTPEDTAVYLCARGSSWGHAPAFFDYWGQGTLVTVSSGGGGSGGGGSGGGGSDIQMTQSPSSLSASVEDRVAITCRASQSVSTYVAWYQQKPGKAPKLLISQASSLENGVPSRFSGSGSGTDFTLTISSLQPEDFATYYCQQYTTYPYTFGQGTKLEIKR
notes: the phage-presented and the soluble form are kept under one id, the assay field tells which was used; not shown: C-terminal E tag from pCANTAB5E (phage form: fused to the phage coat protein)
B6 gave an A450 [2] of at least 0.6 A450.

B7: single chain antibody γ+κ 12, pCANTAB5E clone 12 (phage presented and soluble forms) (scFv)
scFv: MAQVQLQQSGPGLVKPSQTLSLTCDISGDSISTNGAAWNWIRQSPSRGLEWLGRTFYRSKWYNDYAVSVKSRMIINPDTSKNQFSLQLSSVTPEDTAVYYCARVACSGGTCLDGIDVWGQGTTVTVSSGGGGSGGGGSGGGGSDIVMTQSPSSLSASVGERVTITCRASQAIRNDLGWYQQKPGKAPKLLVYSASNLQSGVPSRFSGSGSGTDFTLTISSLQPEDFATYYCQQYHSYPRTFSQGTKLEIKR
notes: as for B2
In the case of B7, the A450 [2] is reported as at least 0.6 A450.

B8: silkworm form biotinylated sRAGE (silkworm coexpressing BirA, biotin feed, Example 19) (receptor)
chain: GHHHHHHHHHHSSGHIDDDDKHMAQNITARIGEPLVLKCKGAPKKPPQRLEWKLNTGRTEAWKVLSPQGGGPWDSVARVLPNGSLFLPAVGIQDEGIFRCQAMNRNGKETKSNYRVRVYQIPGKPEIVDSASELTAGVPNKVGTCVSEGSYPAGTLSWHLDGKPLVPNEKGVSVKEQTRRHPETGLFTLQSELMVTPARGGDPRPTFSCSFSPGLPRHRALRTAPIQPRVWEPVPLEEVQLVVEPEGGAVAPGGTVTLTCEVPAQPSPQIHWMKDGVPLPLPPSPVLILPEIGPQDQGTYSCVATHSSHGPQESRAVSISIIEPGEEGPTAGSRSGAGTPVTAPLAGTIWKVLASEGQTVAAGEVLLILEAMKMETEIRAAQAGTVRGIAVKAGDAVAVGDTLMTLAGTKLGPEQKLISEEDLNSAVDHHHHHH
modifications: a single biotin on the biotinylation tag; silkworm form N-linked sugar chains at two sites
notes: also called Biotin tag sRAGE; Biotin-RAGE
For B8, the Kd [1] was 220 nM.
